This is an account of results in PMC10976854.

“And” between values parts separate entries of the source, which are not always exact repeats. Identical values can stand only once.

The target of test [1] is collagenase-cleaved xZP2-N2N3 (Xenopus). The experiment in a line: SEC-MALS.
Test [2] has the same target. In words: native MS.
Test [3] concerns the target Xenopus egg exudate-cleaved xZP2-N2N3 (Xenopus). In words: SEC-MALS. (Size exclusion chromatography separates by hydrodynamic size, large species first.)
For test [4] the target is unchanged. In words: native MS.

As usually defined, the stoichiometry N is the number of molecules, sites or subunits per partner or assembly.

B1: collagenase-cleaved xZP2-N2N3 (domain or fragment)
chain 1: DEPGSSVVTCTKDSMTVRIPRTLSGFDDEIP
chain 2: VAAPSFWDLEVKFTGQTSLLGMSEARQRGYQFSSDPYYLTVQASYSAFGLNVFNLENQRLYVADLRLVSQFGSPRISIDTPMICARDSPSCNSTHATVLIPFFGGVLTGINVNSVNIQLSSYSLQQHGITLDSRNGYRLYIKRSTLKGDRNDVLVLTFIYYGKTVPMLISLVCSGGSN
modifications: not checked
As for B1, the stoichiometry N in test [1] and in test [2] was 4 each time.

B2: Xenopus egg exudate-cleaved xZP2-N2N3 (domain or fragment)
chain 1: B1 chain 1
chain 2: B1 chain 2
modifications: not checked
Consider B2, for which the stoichiometry N was 4 and 2 in test [3]; 2 and 4 in test [4].
